Results: US20170281764A1 (JN BIOSCIENCES, published 2017)
Substitutions are numbered along the chain they refer to. Names may count otherwise.

Experiments:
[1] = target: T1, HA-tagged human TIGIT with mutation N49A, on CHO-K1 cells (human, UniProt Q495A1 22-244); assay: flow cytometry on CHO-K1 cells transiently expressing HA-tagged TIGIT mutant
T1 sequence: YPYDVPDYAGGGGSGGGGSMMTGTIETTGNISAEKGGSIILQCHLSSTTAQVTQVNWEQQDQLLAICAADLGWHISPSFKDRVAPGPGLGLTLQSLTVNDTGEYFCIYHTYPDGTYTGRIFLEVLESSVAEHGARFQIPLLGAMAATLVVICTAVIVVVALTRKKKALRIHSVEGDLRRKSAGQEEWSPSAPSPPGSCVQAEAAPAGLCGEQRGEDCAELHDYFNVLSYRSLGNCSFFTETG
Protocol: (§1) For flow cytometry analysis of the anti-hTIGIT antibody binding epitope, HA-tagged human TIGIT proteins with or without single amino acid mutation were transiently transfected into CHO-K1 cells. After 24 hr, transfected cells were suspended in HBSS buffer (Thermo Fisher Scientific, Cat#14175095), and incubated with HuTIG1-IgG1.AA antibody at varying concentrations in 50 μL volume. After 1 hr incubation at 4° C., cells were washed and a second incubation with 50 μL Alexa488 conjugated anti-human IgG(H+L) secondary antibody (Thermo Fisher Scientific, Cat#A-11013) was performed to detect cells bound by antibody. Cells were incubated with an anti-HA antibody (Sigma, Cat# H7411) as a positive control, and non-transfected CHO-K1 cells were used as a negative control. The cells were analyzed on an Attune NxT Cytometer (Thermo Fisher Scientific) and the data were processed using FlowJo software. For each mutant, the saturating antibody binding MFI (mean fluorescence intensity) were normalized to 100% POC (percent of control), and no primary antibody binding control MFI were normalized to 0% POC. Data were then fit to a four parameter non-linear sigmoidal curve using GraphPad Prism 7 curve fitting using following formula: Y=Bottom+(Top−Bottom)/(1+10^{((Log EC}^₅₀^{-X)*HillSlope)}).
(§2) All of these residues co-locate to one discrete region on the front ([…] structure of the TIGIT IgV extracellular domain (FIG. 28).

[2] = target: T2, HA-tagged human TIGIT with mutation D51A, on CHO-K1 cells (human, UniProt Q495A1 22-244); assay: as above
T2 construct: Built as for m17
T2 sequence: T1 sequence with A68N, D70A
Protocol: as §1, §2

[3] = target: T3, HA-tagged human TIGIT with mutation N37A, on CHO-K1 cells (human, UniProt Q495A1 22-244); assay: as above
T3 construct: Built as for m17
T3 sequence: T1 sequence with N56A, A68N
Protocol: as §1, §2

[4] = target: T4, HA-tagged human TIGIT with mutation Q35A, on CHO-K1 cells (human, UniProt Q495A1 22-244); assay: flow cytometry on CHO-K1 cells transiently expressing HA-tagged TIGIT mutant; Q35A mutant
T4 construct: Built as for m17
T4 sequence: T1 sequence with Q54A, A68N
Protocol: as §1, with “EC}^₅₀^{-X)*HillSlope)}). […]” for “EC}^₅₀^{-X)*HillSlope)}).”

B1: HuTIG1-IgG1.AA (humanized IgG1/kappa form of TIG1, L234A/L235A) (antibody)
heavy: not shown
light: DIQMTQSPSSLSASVGDRVTITCRASKSISKYLAWYQQKPGKAPKLLIYSGSTLQSGVPSRFSGSGSGTDFTLTISSLQPEDFATYYCQQHNEYPWTFGGGTKVEIKRTVAAPSVFIFPPSDEQLKSGTASVVCLLNNFYPREAKVQWKVDNALQSGNSQESVTEQDSKDSTYSLSSTLTLSKADYEKHKVYACEVTHQGLSSPVTKSFNRGEC
notes: Mature full chains; also called humanized TIG1
fold decrease in binding affinity against wild type human TIGIT [1]: > 10 fold | fold decrease in binding affinity against wild type human TIGIT [2]: > 10 fold | fold decrease in binding affinity against wild type human TIGIT [3]: > 10 fold | EC50 [4]: 176 nM
